Laboratory results as given in publication PMC10630519, “Structural insights into the modulation of coronavirus spike tilting and infectivity by hinge glycans” (Nature Communications, 2023).

Target: the molecule itself
Experiment: cryo-EM structure; cryoET and subtomogram averaging of spikes on vitrified, chemically unfixed HCoV-NL63 virions in NTE buffer (20 mM Tris pH 8.0, 120 mM NaCl, 1 mM EDTA); 18,356 spike subvolumes; C3 symmetry imposed; focused classification of RBD and domain 0

B1: human coronavirus NL63 (HCoV-NL63) spike glycoprotein (S) (natural protein)
chain: CNSNANLSMLQLGVPDNSSTIVTGLLPTHWFCANQSTSVYSANGFFYIDVGNHRSAFALHTGYYDANQYYIYVTNEIGLNASVTLKICKFSRNTTFDFLSNASSSFDCIVNLLFTEQLGAPLGITISGETVRLHLYNVTRTFYVPAAYKLTKLSVKCYFNYSCVFSVVNATVTVNVTTHNGRVVNYTVCDDCNGYTDNIFSVQQDGRIPNGFPFNNWFLLTNGSTLVDGVSRLYQPLRLTCLWPVPGLKSSTGFVYFNATGSDVNCNGYQHNSVVDVMRYNLNFSANSLDNLKSGVIVFKTLQYDVLFYCSNSSSGVLDTTIPFGPSSQPYYCFINSTINTTHVSTFVGILPPTVREIVVARTGQFYINGFKYFDLGFIEAVNFNVTTASATDFWTVAFATFVDVLVNVSATNIQNLLYCDSPFEKLQCEHLQFGLQDGFYSANFLDDNVLPETYVALPIYYQHTDINFTATASFGGSCYVCKPHQVNISLNGNTSVCVRTSHFSIRYIYNRVKSGSPGDSSWHIYLKSGTCPFSFSKLNNFQKFKTICFSTVEVPGSCNFPLEATWHYTSYTIVGALYVTWSEGNSITGVPYPVSGIREFSNLVLNNCTKYNIYDYVGTGIIRSSNQSLAGGITYVSNSGNLLGFKNVSTGNIFIVTPCNQPDQVAVYQQSIIGAMTAVNESRYGLQNLLQLPNFYYVSNGGNNCTTAVMTYSNFGICADGSLIPVRPRNSSDNGISAIITANLSIPSNWTTSVQVEYLQITSTPIVVDCATYVCNGNPRCKNLLKQYTSACKTIEDALRLSAHLETNDVSSMLTFDSNAFSLANVTSFGDYNLSSVLPQRNIRSSRIAGRSALEDLLFSKVVTSGLGTVDVDYKSCTKGLSIADLACAQYYNGIMVLPGVADAERMAMYTGSLIGGMVLGGLTSAAAIPFSLALQARLNYVALQTDVLQENQKILAASFNKAINNIVASFSSVNDAITQTAEAIHTVTIALNKIQDVVNQQGSALNHLTSQLRHNFQAISNSIQAIYDRLDSIQADQQVDRLITGRLAALNAFVSQVLNKYTEVRGSRRLAQQKINECVKSQSNRYGFCGNGTHIFSIVNSAPDGLLFLHTVLLPTDYKNVKAWSGICVDGIYGYVLRQPNLVLYSDNGVFRVTSRVMFQPRLPVLSDFVQIYNCNVTFVNISRVELHTVIPDYVDVNKTLQEFAQNLPKYVKPNFDLTPFNLTYLNLSSELKQLEAKTASLFQTTVELQGLIDQINSTYVDLKLLNRFENYIKWPWWVWLIISVVFVVLLSLLVFCCLSTGCCGCCNCLTSSMRGCCDCGSTKLPYYEFEKVHVQ
modifications: N-linked glycans at 39 N-glycosylation sites (among them N240, N354, N358, N426, N486, N506, N512, N749, N844, N852, N1111, N1196, N1201, N1218, N1242, N1247, N1277)
notes: Spike glycoprotein S of human coronavirus NL63 (virus from BEI Resources NR-470), full-length S in the viral envelope; not cleaved at S1/S2 (single band of about 250 kD); Native membrane-anchored trimer on virions; The model covers the crown, residues 1-1224; the stalk (1216-1297) is only a predicted model; also called S trimer; S protomer; source: no chemical fixation
**Q.** For B1, which “stoichiometry N” value is on record?
**A.** The value was 3.
